For test [1], the target named is RSV F on RSV-A2 virus (Respiratory Syncytial Virus (RSV-A2), UniProt P03420 26-574). Nature of the test: cell-based or functional assay.
Test [2] addresses RSV postfusion F (postF), F ΔFP (Respiratory Syncytial Virus, UniProt P03420 26-513). Nature of the test: BLI, IgG on anti-human IgG sensor, 100 nM antigen, 1:1 fit. On the technique in general: BLI is a label-free optical method that tracks binding on a fibre tip over time.
Test [3] concerns the target RSV prefusion F (preF), DS-Cav1 (Respiratory Syncytial Virus, UniProt P03420 26-513). Described as above.

Substitutions are numbered along the chain they refer to.

As usually defined, the Kd is the free concentration of one partner at which half of the binding sites on the other are occupied at equilibrium, for simple one-to-one binding. A high value points to lower affinity.

B1: ADI-41466 (antibody, V domains shown)
VH: QVQLVQSGAEVKKPGASVKVSCKASGYTFNFYYMHWVRQAPGQGLEWMGWINPKSGGTSYAQKFQGRVIMTGDTSISTTYMELSRLRSDDTAVYYCARADTGLELDVWGQGTTVTVSS
VL: QSALIQPASVSGSPGQSITISCTGTSSDVGGYNYVSWYQQHPGKAPKLILYDVSKRPSGVSNRFSGSKSGNTASLTISGLQAEDESDYFCSSYTRSNTVVFGGGTKVTVL
notes: also called Ab 750; Antibody Number 750
Regarding B1, the “Neutralization IC50 (RSV subtype A)” value in test [1] is over 25 mg/L. Besides, the figures for the Kd in test [2] and in test [3] were 0.383 nM and 2.05 nM, respectively.

B2: ADI-41481 (antibody, V domains shown)
VH: QVQLVESGPGLVKPSETLSLACSVSGVSISTYYWTWIRQPPGKGLEWIGYISYSGSTNYNPSLKSRVTISADTSKNQFSLRLNSVTAADTAVYYCARTYYDFWSTYYGEFDHWGHGTLVTVSS
VL: SYELTQPLSVSVALGQTARITCGGNNIESKNVHWYQQKPGQAPVVVMYRDTNRPSGIPERFSGSNSGNTATLTISRAQAGDEADYYCQVWDSGTAGVVFGGGTKVTVL
notes: also called Ab 763; Antibody Number 763
Regarding B2, the “Neutralization IC50 (RSV subtype A)” value in test [1] amounted to 0.68 mg/L. The values for the Kd in test [2] and in test [3] were 0.443 nM and 2.09 nM, respectively.

B3: ADI-41472 (antibody, V domains shown)
VH: QVQLVQSGAEVKKPGSSVKVSCKASGGTFSSYAISWVRQAPGQGLEWMGRIIPVLDITNYAQKFQGRVTIMADKSTSTAYMELSSLRSEDTAIYYCARETSNFYFYYNAMDVWGQGTTVTVSS
VL: QPVLTQPPSASGSPGQSVTISCTGTSSDVGGDNYVSWYQQHPGKAPKLLIYEVSKRPSGVPDRFSGSRSGHTASLTVSGLQAEDEADYYCSSYAGRNNLGVFGGGTKLTVL
As for B3, the “Neutralization IC50 (RSV subtype A)” value in test [1] was 0.27 mg/L. Also, the Kd is 1.06 nM in test [2] and 3.05 nM in test [3].

B4: ADI-41485 (antibody, V domains shown)
VH: EVQLLESGPGLVRPSETLSLTCTVSGGSLDSGPHYWNWIRQPPGKGLEWIGYIYYSVSTNYNPSLKSRVTISMDTSKNQFSLNLTSVTAADTAVYYCASFQLIYGPQIWGQGKKVTVSS
VL: DIVLTQSPSSVSASVGDRVTITCRASQAISSWLIWSQHKPGKAPKVLIYAASSLQSGVPSRFSGSGSGTDFTLTISSLQPEDFATYYCQQANNFPLTFGGGTKVEIK
For the molecule B4, in test [1], the “Neutralization IC50 (RSV subtype A)” value is over 25 mg/L. Further, the values for the Kd in test [2] and in test [3] were 1.02 nM and 3.01 nM, respectively.

B5: ADI-41492 (antibody, V domains shown)
VH: QVQLVQSGAEVRKPGSSVKVSCKASGGTFNSFVISWVRQAPGQGLEWMGRIIPILATVDYAQKFQGRVTITADKSTTTAYMELSGLTSEDTAVYYCARDPPRWDTTMADYYYQGMDVWGQGTTVTVSS
VL: DIRVTQSPASLSAFVGDRVTISCRASQSIGSFLNWYQQKPGKAPKLLIYAASSLQSGVPSRFSGSGSGTDFTLAISSLQPEDFATYYCQQSYRSTPTFGGGTKVEIK
On to B5, for which the “Neutralization IC50 (RSV subtype A)” value in test [1] is over 25 mg/L. Besides, the figures for the dissociation constant (Kd) in test [2] and in test [3] were 54.8 nM and 182 nM, respectively.

B6: ADI-41469 (antibody, V domains shown)
VH: EVQLVESGGGVVQPGRSLRLSCAASGFTFSSYGMHWVRQAPGKGLEWVAVISYDGSFIKYADSMMGRFTISRDNSKNTLYLQMSSLRPEDTATYYCAKDALIPEYWGQGTLVTVSS
VL: QPVLTQPASVSGSPGQSITISCTGTSSDVGGYNYVSWYQKHPDKAPRVIIYEVSNRPSGVSNRFSGSKSGNTASLTISGLQAEDEADYYCCSYTSTSGVVFGGGTKLTVL
Consider B6, for which the “Neutralization IC50 (RSV subtype A)” value in test [1] was determined as 0.35 mg/L. Besides, the values for the Kd in test [2] and in test [3] were 0.345 nM and 0.28 nM, respectively.

B7: ADI-41486 (antibody, V domains shown)
VH: QVQLQQWGAGLLKPSETLSLTCSVYGGSFSGYYWSWIRQPPGKGLEWIGEINHSGSTNYNPSLKSRITISVDTSKNQFSLKLNSVTAADTAVYYCARGDYAFVTFDYWGQGTLVTVSS
VL: B6 VL with P2S, K40Q, D43G, R47K, V48L, I49M, C91S, T96S, G98T, V99P
notes: also called Ab 767; Antibody Number 767
Regarding B7, the “Neutralization IC50 (RSV subtype A)” value in test [1] was over 25 mg/L. Also, the Kd in test [2] is 0.448 nM; in test [3] it was 2.86 nM.

B8: ADI-41480 (antibody, V domains shown)
VH: EVQLLESGPGLVRPSGTLSLTCTVSGDSISGSNWWAWVRQPPGRRLEWIGEIYYRGATDYNSSLKSRVIISVDNSKNQFSLNLRSVTAADTAIYYCARVEKFATSGYYISYFDYWGQGTLVTVSS
VL: DIRVTQSPSSLSASVGDRVTITCRASQSISTYLNWYQHNPGKAPKLLIYAASSLQSGVPSRFSGSGSGTHFTLTISSLQPADFSTYYCQQSYSSPWTFGQGTKVEIK
With B8, in test [1], the “Neutralization IC50 (RSV subtype A)” value is over 25 mg/L. Further, the Kd in test [2] is 0.703 nM; in test [3] it was 4.34 nM.

B9: ADI-41468 (antibody, V domains shown)
VH: QVQLQQWGAGPLKSSETLSLTCEVYGGPFSGYSWSWIRQPPGKGLEWIGEINHSGSTNYNPSLKSRVSFSVDTSKNQFSLKLSSVTAADTAVYYCARGAGFCTSTSCPPGLYYYYGMDVWGHGTTVTVSS
VL: SYELTQPLSVSVALGQTARITCGGNNIESKNVHWYQQMPGLAPVMVIYRDTNRPSGIPERFSGSNSGNTATLTISRAQAGDEADYYCQVWDSGTVIFGGGTKLTVL
notes: also called Ab 752; Antibody Number 752
For B9, the “Neutralization IC50 (RSV subtype A)” value in test [1] is over 25 mg/L. The values for the equilibrium dissociation constant (Kd) in test [2] and in test [3] were 0.344 nM and 0.716 nM, respectively.

B10: ADI-41474 (antibody, V domains shown)
VH: QVQLVQSGAEVKRPGASVKVSCKISGYTFTSHYIHWLRQAPGQGLEWMGWINPNTGDTKYEQKFQGRVTMTRDTSLSTAYMELRRLRSDDTAVYYCARDSFYAANGYYFVWFDPWGQGALVTVSS
VL: DIQMTQSPTSLSASVGDRVTITCRASQSISSYLNWYQQKPGKAPRFLIYAASSLQSGVPSRFRGSGSGTDFTLTISSLQPEDFATYYCQQSYSSPYTFGQGTKVEIK
notes: also called Ab 757; Antibody Number 757
Consider B10, for which the “Neutralization IC50 (RSV subtype A)” value in test [1] was found to be 0.26 mg/L. Moreover, the values for the Kd in test [2] and in test [3] were 34.8 nM and 17.8 nM, respectively.

B11: ADI-41473 (antibody, V domains shown)
VH: QVQLVQSGPGLVKPSQTLSLTCAISGDSVSSNSAAWSWIRQSPSRGLEWLGRTYYRSKWYYDHAVSVEGRITINADTSKNHFSLQLNSVTPEDTAVYYCARDPDSGNYFHYYGMDVWGQGTTVTVSS
VL: ETTLTQSPATLSLSPGERATLSCRTSQSVSSYLAWYQQKPGQAPRLLIYDASRRATGIPARFSGSGSGTHFTLTITSLEPEDFAVYYCQQRSKWPPYSFGQGTKVDIK
On to B11, for which, in test [1], the “Neutralization IC50 (RSV subtype A)” value is over 25 mg/L. In addition, the figures for the Kd in test [2] and in test [3] were 31.2 nM and 12.7 nM, respectively.

B12: ADI-41475 (antibody, V domains shown)
VH: B11 VH with V5Q, Q6E, S37N, Y60W, Y61T, H63Y, E68K, G69S, A75P, H81Q
VL: B11 VL with T25A, V29A, R53K, H70D, T72S, T76S, Q90L, S98T, D106E
In the case of B12, the “Neutralization IC50 (RSV subtype A)” value in test [1] was over 25 mg/L. Besides, the Kd in test [2] came out at 25.5 nM; in test [3] it was 12.2 nM.

B13: ADI-41493 (antibody, V domains shown)
VH: QVQLVQSGAEVKKPGESLKISCKGSGYSFTKYWIGWVRQLPGKGLEWMGIIYPGDSETIYSPSFQGQVTISADKSVSTAYLQWSSLKASDTAMYYCARQTFVFWGESHDAFDIWGQGTTVTVSS
VL: QPVLTQPPSASGSPGQSVTISCTGTSSDVGAHNYVSWYQQHPGKAPKLMIYEVSKRPSGVPDRFSGSKSGNTASLTVSGLQAEDEADYYCSSYAGSNNWVFGGGTKLTVL
notes: also called Ab 773; Antibody Number 773
As to B13, the “Neutralization IC50 (RSV subtype A)” value in test [1] was over 25 mg/L. Besides, the Kd is 0.372 nM in test [2] and 0.45 nM in test [3].

B14: ADI-41487 (antibody, V domains shown)
VH: QVQLVESGGGLVKPGGSLRLSCAASGFTFSTYTMNWVRQAPGKGLEWVSSISGSSAYIYYADSVKGRFTISRDNAKNSLFLQMNSLRAEDTAVYYCARLQGLVLPAVMPSYYYYSGMDVWGQGTTVTVSS
VL: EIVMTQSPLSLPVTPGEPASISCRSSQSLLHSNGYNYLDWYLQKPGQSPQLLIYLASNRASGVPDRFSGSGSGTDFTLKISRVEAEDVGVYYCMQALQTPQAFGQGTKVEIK
notes: also called Ab 768; Antibody Number 768
Regarding B14, in test [1], the “Neutralization IC50 (RSV subtype A)” value is over 25 mg/L. Further, the dissociation constant Kd worked out at 0.754 nM in test [2] and 3.12 nM in test [3].

B15: ADI-41484 (antibody, V domains shown)
VH: EVQLVESGPGLVKPSEALSLTCTVSGASISSYYWTWIRQSPRKGLEWIGYIYHTGRTNYNPSLKRRVTMSVDWSKNQFSLTLSSVTAADTAVYYCARLKVVPAALESAILEHHFGLDVWGQGTTVTVSS
VL: DIVMTQTPSTLSASIGDRVTLTCRASQSINRWLAWYQQKPGKAPKLLIYKASTLESGVPSRFSGSGSGTEFTLTISGLQPDDFATYYCQQYNNFPYTFGPGTKVDIK
As for B15, in test [1], the “Neutralization IC50 (RSV subtype A)” value was over 25 mg/L. For the same molecule, the Kd was 0.782 nM in test [2] and 3.44 nM in test [3].

B16: ADI-41482 (antibody, V domains shown)
VH: QVQLVQSGAEVKKPGSSVKVSCKASGGTFGSYTINWVRQAPGQGLEWMGGIIPIFGATNYAQNFQGRVSITADKSTATAYMDLISLRSEDTAVYYCARLGRSSPLNSCTTTSCYFWGRGMDVWGQGTTVTVSS
VL: QSVLIQPASVSGSPGQSITISCTGTISDVGIYNYVSWYQQHPGKAPKLIISDVSDRPSGVSNRFSGSKSGITASLTITGLQAEDEADYYCSSYSSSSTLYVFGTGTKLTVL
Turning to B16, the “Neutralization IC50 (RSV subtype A)” value in test [1] is over 25 mg/L. For the same molecule, the Kd in test [2] was 1.49 nM; in test [3], 3.37 nM.

B17: ADI-41471 (antibody, V domains shown)
VH: QVQLVQSGADVKKPGSSVKISCKASGGSFITNSLSWVRRAPGQGLEWMGGIIPVSGTTTYAQKFLGRVTFTADESTSTAYMELNSLRSEDTAVYYCARFLGTPYPNVHYGMDVWGQGTTVTVSS
VL: DIRVTQSPSSLSASVGARVTITCRASQSISTYLNWYQEKPGKAPKLLIYAASSLQRGVPSRFSGSGSETTFTLTISSLQPEDFATYYCQQSYTAAYNFGQGTKVEIK
Regarding B17, the “Neutralization IC50 (RSV subtype A)” value in test [1] was over 25 mg/L. In addition, the Kd was 0.761 nM in test [2] and 3.75 nM in test [3].
